Source: PMC6321479, “The C Terminus of the Ribosomal-Associated Protein LrtA Is an Intrinsically Disordered Oligomer” (International Journal of Molecular Sciences, 2018)

Columns and labels:
[1] = target: the molecule itself; assay: SEC; Superose 12 10/300 GL, pH 8.0 (50 mM Tris), 0.250 M NaCl, 0.8 mL/min; C-LrtA loaded at 30 uM (protomer), 100 uL
[2] = target: the molecule itself; assay: native gel or EMSA; blue-native PAGE, linear 4-16% gradient gel, 20 ug C-LrtA with Coomassie Brilliant blue G, 4 °C; increasing amounts of SDS also tested
[3] = target: the molecule itself; assay: cross-linking; glutaraldehyde, pH 7.2 (50 mM Tris), 120 uM C-LrtA (protomer), 200 uL, several reaction times, SDS-PAGE
[4] = target: the molecule itself; assay: SEC; Superose 12 10/300 GL, pH 8.0 (50 mM Tris), 0.250 M NaCl, 0.8 mL/min; C-LrtA loaded at 500 uM (protomer), 100 uL

B1: C-terminal region of LrtA (C-LrtA, residues 102-191) with N-terminal His-tag (domain or fragment, Synechocystis sp. PCC 6803)
chain: QHGNVKTSEIVEDKPVEENLIGDRAPELPSEVLRMKYFAMPPMAIEDALEQLQLVDHDFYMFRNKDTDEINVIYIRNHGGYGVIQPHQAS
notes: LrtA of Synechocystis sp; PCC 6803 (191 residues), residues 102-191; whole construct 109 residues with the His-tag, 12,449.89 Da; Cloned in pHTP1 by NZytech; also called isolated C-LrtA; C-terminal half of LrtA protein; source: E. coli BL21 (DE3), purified (Ni-resin IMAC, Hi-Trap Mono Q)
- stoichiometry N [1]: ~2
- stoichiometry N [2]: 5
- stoichiometry N [3]: 2
- stoichiometry N [4]: ~8
